Results: IntAct's records for PubMed 29039417

B1: BBSome complex member BBS1 (Homo sapiens), Q8NFJ9 (parent)
chain: MAAASSSDSDACGAESNEANSKWLDAHYDPMANIHTFSACLALADLHGDGEYKLVVGDLGPGGQQPRLKVLKGPLVMTESPLPALPAAAATFLMEQHEPRTPALALASGPCVYVYKNLRPYFKFSLPQLPPNPLEQDLWNQAKEDRIDPLTLKEMLESIRETAEEPLSIQSLRFLQLELSEMEAFVNQHKSNSIKRQTVITTMTTLKKNLADEDAVSCLVLGTENKELLVLDPEAFTILAKMSLPSVPVFLEVSGQFDVEFRLAAACRNGNIYILRRDSKHPKYCIELSAQPVGLIRVHKVLVVGSTQDSLHGFTHKGKKLWTVQMPAAILTMNLLEQHSRGLQAVMAGLANGEVRIYRDKALLNVIHTPDAVTSLCFGRYGREDNTLIMTTRGGGLIIKILKRTAVFVEGGSEVGPPPAQAMKLNVPRKTRLYVDQTLREREAGTAMHRAFQTDLYLLRLRAARAYLQALESSLSPLSTTAREPLKLHAVVQGLGPTFKLTLHLQNTSTTRPVLGLLVCFLYNEALYSLPRAFFKVPLLVPGLNYPLETFVESLSNKGISDIIKVLVLREGQSAPLLSAHVNMPGSEGLAAA
partner: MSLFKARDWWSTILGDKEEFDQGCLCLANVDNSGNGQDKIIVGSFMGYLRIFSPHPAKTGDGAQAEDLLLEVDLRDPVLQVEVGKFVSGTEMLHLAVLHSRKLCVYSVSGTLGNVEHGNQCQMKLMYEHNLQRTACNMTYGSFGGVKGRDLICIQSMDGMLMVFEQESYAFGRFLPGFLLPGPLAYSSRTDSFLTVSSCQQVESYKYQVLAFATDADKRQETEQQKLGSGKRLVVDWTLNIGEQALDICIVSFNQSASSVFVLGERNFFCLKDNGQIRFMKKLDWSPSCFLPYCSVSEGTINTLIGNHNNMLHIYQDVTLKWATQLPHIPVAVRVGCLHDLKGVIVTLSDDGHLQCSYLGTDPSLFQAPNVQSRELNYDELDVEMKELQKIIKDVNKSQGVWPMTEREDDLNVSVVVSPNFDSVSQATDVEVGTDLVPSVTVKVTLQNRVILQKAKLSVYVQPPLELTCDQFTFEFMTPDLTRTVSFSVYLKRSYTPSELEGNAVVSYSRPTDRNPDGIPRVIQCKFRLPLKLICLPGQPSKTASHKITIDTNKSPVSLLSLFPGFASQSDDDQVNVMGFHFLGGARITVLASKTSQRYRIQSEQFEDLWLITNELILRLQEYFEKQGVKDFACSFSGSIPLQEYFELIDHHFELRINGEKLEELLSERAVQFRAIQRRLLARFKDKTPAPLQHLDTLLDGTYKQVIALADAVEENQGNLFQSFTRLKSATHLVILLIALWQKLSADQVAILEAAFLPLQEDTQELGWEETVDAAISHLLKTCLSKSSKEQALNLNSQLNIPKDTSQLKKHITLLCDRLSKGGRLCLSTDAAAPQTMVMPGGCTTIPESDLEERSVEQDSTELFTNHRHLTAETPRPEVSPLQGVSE

Variants of: B1
Details: with pthb1_human BBS9, Q3SYG4

| effect of a mutation on the interaction | Variant |
| --- | --- |
| with no effect | MAAASSSDSDACGAESNEANSKWLDAHYDPMANIHTFSACLALADLHGDGEYKLVVGDLGPGGQQPRLKVLKGPLVMTESPLPALPAAAATFLMEQHEPRTPALALASGPCVYVYKNLRPYFKFSLPQLPPNPLEQDLWNQAKEDRIDPLTLKEMLESIRETAEEPLSIQSLRFLQLELSEMEAFVNQHKSNSIKRQTVITTMTTLKKNLADEDAVSCLVLGTENKELLVLDPEAFTILAKMSLPSVPVFLEVSGQFDVEFRLAAACRNGNIYILRRDSKHPKYCIELSAQPVGLIRVHKVLVVGSTQDSLHGFTHKGKKLWTVQMPAAILTMNLLEQHSRGLQAVMAGLANGEVRIYRDKALLNVIHTPDAVTSLCFGRYGREDNTLIMTTRGGGLIIKILKRTAVFVEGGSEVGPPPAQAMKLNVPRKTRLYVDQTLREREAGTAMHRAFQTDLYLLRLRAARAYLQALESSLSPLSTTAREPLKLHAVVQGLGPTFKLTLHLQNTSTTRPVLGLLVCFLYNEALYSLPRAFFKVPLLVPGLNYPLETFVEKLSNKGISDIIKVLVLREGQSAPLLSAHVNMPGSEGLAAA [S554K] |
| disrupting interaction strength | MAAASSSDSDACGAESNEANSKWLDAHYDPMANIHTFSACLALADLHGDGEYKLVVGDLGPGGQQPRLKVLKGPLVMTESPLPALPAAAATFLMEQHEPRTPALALASGPCVYVYKNLRPYFKFSLPQLPPNPLEQDLWNQAKEDRIDPLTLKEMLESIRETAEEPLSIQSLRFLQLELSEMEAFVNQHKSNSIKRQTVITTMTTLKKNLADEDAVSCLVLGTENKELLVLDPEAFTILAKMSLPSVPVFLEVSGQFDVEFRLAAACRNGNIYILRRDSKHPKYCIELSAQPVGLIRVHKVLVVGSTQDSLHGFTHKGKKLWTVQMPAAILTMNLLEQHSRGLQAVMAGLANGEVRIYRDKALLNVIHTPDAVTSLCFGRYGREDNTLIMTTRGGGLIIKILKRTAVFVEGGSEVGPPPAQAMKLNVPRKTRLYVDQTLREREAGTAMHRAFQTDLYLLRLRAARAYLQALESSLSPLSTTAREPLKLHAVVQGLGPTFKLTLHLQNTSTTRPVLGLLVCFLYNEALYSLPRAFFKVPLLVPGLNYPLETFVEELSNKGISDIIKVLVLREGQSAPLLSAHVNMPGSEGLAAA [S554E] |
| with no effect | MAAASSSDSDACGAESNEANSKWLDAHYDPMANIHTFSACLALADLHGDGEYKLVVGDLGPGGQQPRLKVLKGPLVMTESPLPALPAAAATFLMEQHEPRTPALALASGPCVYVYKNLRPYFKFSLPQLPPNPLEQDLWNQAKEDRIDPLTLKEMLESIRETAEEPLSIQSLRFLQLELSEMEAFVNQHKSNSIKRQTVITTMTTLKKNLADEDAVSCLVLGTENKELLVLDPEAFTILAKMSLPSVPVFLEVSGQFDVEFRLAAACRNGNIYILRRDSKHPKYCIELSAQPVGLIRVHKVLVVGSTQDSLHGFTHKGKKLWTVQMPAAILTMNLLEQHSRGLQAVMAGLANGEVRIYRDKALLNVIHTPDAVTSLCFGRYGREDNTLIMTTRGGGLIIKILKRTAVFVEGGSEVGPPPAQAMKLNVPRKTRLYVDQTLREREAGTAMHRAFQTDLYLLRLRAARAYLQALESSLSPLSTTAREPLKLHAVVQGLGPTFKLTLHLQNTSTTRPVLGLLVCFLYNEALYSLPRAFFKVPLLVPGLNYPLETFVESKSNKGISDIIKVLVLREGQSAPLLSAHVNMPGSEGLAAA [L555K] |
| with no effect | MAAASSSDSDACGAESNEANSKWLDAHYDPMANIHTFSACLALADLHGDGEYKLVVGDLGPGGQQPRLKVLKGPLVMTESPLPALPAAAATFLMEQHEPRTPALALASGPCVYVYKNLRPYFKFSLPQLPPNPLEQDLWNQAKEDRIDPLTLKEMLESIRETAEEPLSIQSLRFLQLELSEMEAFVNQHKSNSIKRQTVITTMTTLKKNLADEDAVSCLVLGTENKELLVLDPEAFTILAKMSLPSVPVFLEVSGQFDVEFRLAAACRNGNIYILRRDSKHPKYCIELSAQPVGLIRVHKVLVVGSTQDSLHGFTHKGKKLWTVQMPAAILTMNLLEQHSRGLQAVMAGLANGEVRIYRDKALLNVIHTPDAVTSLCFGRYGREDNTLIMTTRGGGLIIKILKRTAVFVEGGSEVGPPPAQAMKLNVPRKTRLYVDQTLREREAGTAMHRAFQTDLYLLRLRAARAYLQALESSLSPLSTTAREPLKLHAVVQGLGPTFKLTLHLQNTSTTRPVLGLLVCFLYNEALYSLPRAFFKVPLLVPGLNYPLETFVESESNKGISDIIKVLVLREGQSAPLLSAHVNMPGSEGLAAA [L555E] |
| with no effect | MAAASSSDSDACGAESNEANSKWLDAHYDPMANIHTFSACLALADLHGDGEYKLVVGDLGPGGQQPRLKVLKGPLVMTESPLPALPAAAATFLMEQHEPRTPALALASGPCVYVYKNLRPYFKFSLPQLPPNPLEQDLWNQAKEDRIDPLTLKEMLESIRETAEEPLSIQSLRFLQLELSEMEAFVNQHKSNSIKRQTVITTMTTLKKNLADEDAVSCLVLGTENKELLVLDPEAFTILAKMSLPSVPVFLEVSGQFDVEFRLAAACRNGNIYILRRDSKHPKYCIELSAQPVGLIRVHKVLVVGSTQDSLHGFTHKGKKLWTVQMPAAILTMNLLEQHSRGLQAVMAGLANGEVRIYRDKALLNVIHTPDAVTSLCFGRYGREDNTLIMTTRGGGLIIKILKRTAVFVEGGSEVGPPPAQAMKLNVPRKTRLYVDQTLREREAGTAMHRAFQTDLYLLRLRAARAYLQALESSLSPLSTTAREPLKLHAVVQGLGPTFKLTLHLQNTSTTRPVLGLLVCFLYNEALYSLPRAFFKVPLLVPGLNYPLETFVESASNKGISDIIKVLVLREGQSAPLLSAHVNMPGSEGLAAA [L555A] |
